Target: the molecule itself
Experiment: cryo-EM structure; cryoET and subtomogram averaging of spikes on vitrified, chemically unfixed HCoV-NL63 virions in NTE buffer (20 mM Tris pH 8.0, 120 mM NaCl, 1 mM EDTA); 18,356 spike subvolumes; C3 symmetry imposed; focused classification of RBD and domain 0

B1: human coronavirus NL63 (HCoV-NL63) spike glycoprotein (S) (natural protein)
chain: CNSNANLSMLQLGVPDNSSTIVTGLLPTHWFCANQSTSVYSANGFFYIDVGNHRSAFALHTGYYDANQYYIYVTNEIGLNASVTLKICKFSRNTTFDFLSNASSSFDCIVNLLFTEQLGAPLGITISGETVRLHLYNVTRTFYVPAAYKLTKLSVKCYFNYSCVFSVVNATVTVNVTTHNGRVVNYTVCDDCNGYTDNIFSVQQDGRIPNGFPFNNWFLLTNGSTLVDGVSRLYQPLRLTCLWPVPGLKSSTGFVYFNATGSDVNCNGYQHNSVVDVMRYNLNFSANSLDNLKSGVIVFKTLQYDVLFYCSNSSSGVLDTTIPFGPSSQPYYCFINSTINTTHVSTFVGILPPTVREIVVARTGQFYINGFKYFDLGFIEAVNFNVTTASATDFWTVAFATFVDVLVNVSATNIQNLLYCDSPFEKLQCEHLQFGLQDGFYSANFLDDNVLPETYVALPIYYQHTDINFTATASFGGSCYVCKPHQVNISLNGNTSVCVRTSHFSIRYIYNRVKSGSPGDSSWHIYLKSGTCPFSFSKLNNFQKFKTICFSTVEVPGSCNFPLEATWHYTSYTIVGALYVTWSEGNSITGVPYPVSGIREFSNLVLNNCTKYNIYDYVGTGIIRSSNQSLAGGITYVSNSGNLLGFKNVSTGNIFIVTPCNQPDQVAVYQQSIIGAMTAVNESRYGLQNLLQLPNFYYVSNGGNNCTTAVMTYSNFGICADGSLIPVRPRNSSDNGISAIITANLSIPSNWTTSVQVEYLQITSTPIVVDCATYVCNGNPRCKNLLKQYTSACKTIEDALRLSAHLETNDVSSMLTFDSNAFSLANVTSFGDYNLSSVLPQRNIRSSRIAGRSALEDLLFSKVVTSGLGTVDVDYKSCTKGLSIADLACAQYYNGIMVLPGVADAERMAMYTGSLIGGMVLGGLTSAAAIPFSLALQARLNYVALQTDVLQENQKILAASFNKAINNIVASFSSVNDAITQTAEAIHTVTIALNKIQDVVNQQGSALNHLTSQLRHNFQAISNSIQAIYDRLDSIQADQQVDRLITGRLAALNAFVSQVLNKYTEVRGSRRLAQQKINECVKSQSNRYGFCGNGTHIFSIVNSAPDGLLFLHTVLLPTDYKNVKAWSGICVDGIYGYVLRQPNLVLYSDNGVFRVTSRVMFQPRLPVLSDFVQIYNCNVTFVNISRVELHTVIPDYVDVNKTLQEFAQNLPKYVKPNFDLTPFNLTYLNLSSELKQLEAKTASLFQTTVELQGLIDQINSTYVDLKLLNRFENYIKWPWWVWLIISVVFVVLLSLLVFCCLSTGCCGCCNCLTSSMRGCCDCGSTKLPYYEFEKVHVQ
modifications: N-linked glycans at 39 N-glycosylation sites (among them N240, N354, N358, N426, N486, N506, N512, N749, N844, N852, N1111, N1196, N1201, N1218, N1242, N1247, N1277)
notes: Spike glycoprotein S of human coronavirus NL63 (virus from BEI Resources NR-470), full-length S in the viral envelope; not cleaved at S1/S2 (single band of about 250 kD); Native membrane-anchored trimer on virions; The model covers the crown, residues 1-1224; the stalk (1216-1297) is only a predicted model; also called S trimer; S protomer; source: no chemical fixation
  stoichiometry N: 3

— article PMC10630519, “Structural insights into the modulation of coronavirus spike tilting and infectivity by hinge glycans” (Nature Communications, 2023)
